This is an account of results in US20240059799A1 (Pfizer, published 2024).

What all share (experiment): SPR, Biacore 8K+, 37 C; antibody captured by anti-human Fc, cytokine injected
(In general: Surface plasmon resonance follows binding to a sensor surface in real time, without labels.)

For one experiment, the target named is T1, cynomolgus monkey IL-12 (cynomolgus monkey).
T1 construct: also called cyno IL-12
T1 chain 1: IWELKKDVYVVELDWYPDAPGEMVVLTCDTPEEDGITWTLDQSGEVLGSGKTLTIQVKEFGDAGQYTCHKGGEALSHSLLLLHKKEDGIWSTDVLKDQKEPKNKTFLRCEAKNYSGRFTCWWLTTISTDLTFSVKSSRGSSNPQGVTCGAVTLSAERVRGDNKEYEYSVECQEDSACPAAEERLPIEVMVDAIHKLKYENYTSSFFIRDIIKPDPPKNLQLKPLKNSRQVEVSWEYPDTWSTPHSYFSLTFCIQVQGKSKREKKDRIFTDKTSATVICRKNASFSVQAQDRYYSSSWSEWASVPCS
T1 chain 2: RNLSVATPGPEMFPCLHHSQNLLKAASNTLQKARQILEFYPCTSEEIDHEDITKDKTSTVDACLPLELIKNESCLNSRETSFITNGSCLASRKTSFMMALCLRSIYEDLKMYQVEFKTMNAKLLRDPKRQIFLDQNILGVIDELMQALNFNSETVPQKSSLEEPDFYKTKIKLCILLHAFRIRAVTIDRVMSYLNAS
The method, then: (§1) In order to determine binding to TL1A, kinetic assays were conducted at 37° C. using a collection rate of 10 Hz on a Biacore™ T200 instrument (GE Healthcare). […] For the analysis of the p40 binding arm, kinetic assays were conducted at 37° C. using a collection rate of 10 Hz on a Biacore™ 8 K+ instrument (GE Healthcare).

The next experiment deals with T2, mouse IL-23 (mouse, UniProt P43432 23-335; Q9EQ14 22-196).
T2 sequence 1: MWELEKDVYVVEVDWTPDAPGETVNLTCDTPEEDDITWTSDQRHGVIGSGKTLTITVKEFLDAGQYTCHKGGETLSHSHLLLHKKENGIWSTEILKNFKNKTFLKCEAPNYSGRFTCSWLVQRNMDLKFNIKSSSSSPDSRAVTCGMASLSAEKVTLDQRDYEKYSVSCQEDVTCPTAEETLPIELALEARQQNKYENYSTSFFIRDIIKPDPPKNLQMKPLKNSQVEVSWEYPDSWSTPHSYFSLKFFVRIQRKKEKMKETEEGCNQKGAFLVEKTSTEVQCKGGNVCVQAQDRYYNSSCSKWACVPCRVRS
T2 sequence 2: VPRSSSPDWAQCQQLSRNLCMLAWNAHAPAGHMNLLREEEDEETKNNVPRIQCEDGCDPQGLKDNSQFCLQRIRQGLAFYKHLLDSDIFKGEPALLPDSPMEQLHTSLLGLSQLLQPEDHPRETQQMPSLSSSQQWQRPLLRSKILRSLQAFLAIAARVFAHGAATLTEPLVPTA
The method, then: as §1

The target in another experiment is T3, rabbit IL-12 (rabbit).
T3 chain 1: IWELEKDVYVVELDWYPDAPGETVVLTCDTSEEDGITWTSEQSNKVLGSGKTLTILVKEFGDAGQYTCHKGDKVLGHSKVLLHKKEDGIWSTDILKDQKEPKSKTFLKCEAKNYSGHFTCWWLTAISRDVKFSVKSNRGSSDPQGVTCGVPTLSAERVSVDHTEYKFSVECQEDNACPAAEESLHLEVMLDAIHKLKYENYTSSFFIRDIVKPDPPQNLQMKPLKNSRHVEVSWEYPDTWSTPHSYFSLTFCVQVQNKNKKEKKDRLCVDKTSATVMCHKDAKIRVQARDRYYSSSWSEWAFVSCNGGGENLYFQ
T3 chain 2: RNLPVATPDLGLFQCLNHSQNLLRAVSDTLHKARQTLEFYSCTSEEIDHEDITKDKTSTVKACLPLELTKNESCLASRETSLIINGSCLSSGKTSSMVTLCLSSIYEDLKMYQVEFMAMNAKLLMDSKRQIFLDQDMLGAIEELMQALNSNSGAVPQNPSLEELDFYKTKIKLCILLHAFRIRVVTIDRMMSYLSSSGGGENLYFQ
The method, then: as §1

The target of the next experiment is T4, rabbit IL-23 (rabbit).
T4 chain 1: T3 chain 1
T4 chain 2: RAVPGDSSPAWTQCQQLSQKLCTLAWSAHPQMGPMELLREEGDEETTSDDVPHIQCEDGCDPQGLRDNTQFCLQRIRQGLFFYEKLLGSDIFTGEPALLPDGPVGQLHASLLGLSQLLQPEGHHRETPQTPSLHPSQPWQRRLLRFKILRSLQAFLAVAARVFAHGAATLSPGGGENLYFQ
As to the method:
as §1

The next experiment concerns the target T5, mouse IL-12 (mouse, UniProt P43432 23-335; P43431 23-215).
T5 sequence 1: T2 sequence 1
T5 sequence 2: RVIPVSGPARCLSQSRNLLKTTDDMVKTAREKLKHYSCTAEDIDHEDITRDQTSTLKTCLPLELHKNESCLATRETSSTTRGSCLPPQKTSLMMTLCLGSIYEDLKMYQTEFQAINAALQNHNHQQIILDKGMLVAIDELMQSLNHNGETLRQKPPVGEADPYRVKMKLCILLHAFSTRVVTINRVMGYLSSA
The method, then:
as §1

Another experiment has as its target T6, rat IL-12 (rat, UniProt P43432 23-335; Q9R103 23-215, limits assumed).
T6 chain 1: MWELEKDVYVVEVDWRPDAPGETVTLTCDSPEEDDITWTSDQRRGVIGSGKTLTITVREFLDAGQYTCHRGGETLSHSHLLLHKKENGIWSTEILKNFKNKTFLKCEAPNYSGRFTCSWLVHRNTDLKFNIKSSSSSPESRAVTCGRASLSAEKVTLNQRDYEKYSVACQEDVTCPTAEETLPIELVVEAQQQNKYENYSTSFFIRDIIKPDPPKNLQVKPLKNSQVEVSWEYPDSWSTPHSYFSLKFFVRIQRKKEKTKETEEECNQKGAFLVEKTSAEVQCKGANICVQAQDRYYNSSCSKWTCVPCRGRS
T6 chain 2: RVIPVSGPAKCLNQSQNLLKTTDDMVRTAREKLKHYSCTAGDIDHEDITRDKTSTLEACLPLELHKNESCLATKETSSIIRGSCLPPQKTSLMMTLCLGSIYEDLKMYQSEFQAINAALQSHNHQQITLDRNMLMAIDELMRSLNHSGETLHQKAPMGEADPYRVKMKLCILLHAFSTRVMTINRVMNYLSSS
As to the method: as §1

B1: p40TL1A-0033 bispecific antibody (bispecific antibody, human IgG1, kappa)
heavy: EVQLVQSGAEVKKPGESLKISCKGSGYSFTTYWLGWVRQMPGKGLDWIGIMSPVDSDIRYSPSFQGQVTMSVDKSITTAYLQWNSLKASDTAMYYCARRRPGQGYFDFWGQGTLVTVSSASTKGPSVFPLAPSSKSTSGGTAALGCLVKDYFPEPVTVSWNSGALTSGVHTFPAVLQSSGLYSLSSVVTVPSSSLGTQTYICNVNHKPSNTKVDKKVEPKSCDKTHTCPPCPAPEAAGAPSVFLFPPKPKDTLMISRTPEVTCVVVDVSHEDPEVKFNWYVDGVEVHNAKTKPREEQYNSTYRVVSVLTVLHQDWLNGKEYKCKVSNKALPAPIEKTISKAKGQPREPQVCTLPPSREEMTKNQVSLWCLVKGFYPSDIAVEWESNGQPENNYKTTPPVLDSDGSFFLYSKLTVDKSRWQQGNVFSCSVLHEALHSHYTQKSLSLSPGK
light: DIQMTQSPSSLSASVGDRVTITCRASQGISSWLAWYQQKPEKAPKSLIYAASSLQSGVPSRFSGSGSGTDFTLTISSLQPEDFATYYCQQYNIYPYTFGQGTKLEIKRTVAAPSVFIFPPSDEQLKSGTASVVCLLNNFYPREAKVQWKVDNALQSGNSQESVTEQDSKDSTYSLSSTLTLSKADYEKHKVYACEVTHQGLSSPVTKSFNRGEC
chain 1: not shown
chain 2: QVQLVQSGAEVKKPGASVKVSCKASGYDYTYYGISWVRQAPGQGLEWMGWISTYNTGTHYAPSLQGRVTMTTDTSTSTAYMELRSLRSDDTAVYYCARESYYGSGAFRGGMDVWGQGTTVTVSSASTKGPSVFPLAPSSKSTSGGTAALGCLVKDYFPEPVTVSWNSGALTSGVHTFPAVLQSSGLYSLSSVVTVPSSSLGTQTYICNVNHKPSNTKVDKKVEPKSC
notes: Single cell KiH, modified Fd format; IgG1 effector-function-minimized Fc with LS mutations
Usually Kd stands for the equilibrium constant for the complex coming apart. What is called koff is a measure of how fast the partners let go of each other. The term kon denotes the second-order rate constant of association. Take B1: the Kd with cynomolgus monkey IL-12 worked out at 0.267 nM. The koff in the experiment with cynomolgus monkey IL-12 stood at 0.000636 s⁻¹. Further, in the experiment with cynomolgus monkey IL-12, the kon stood at 2.38e+06 M⁻¹ s⁻¹. The binding result with mouse IL-23, with rabbit IL-12, with rabbit IL-23, with mouse IL-12 and with rat IL-12 was “no binding (tested: 200 nM)” throughout.
